# Results: EP2119770B1, “Production of alpha-oxyfunctionalized carbonyl compounds” (priority 2008, dated 2009)
# How the values were obtained:
# [1] = tested on: CCC(=O)C(C)=O; experiment: Enzyme kinetics (Lineweaver-Burk plots), Gox0644; format: biochemical, Gluconobacter oxydans; conditions: other: Gox0644; substrate 0.025 to 10 mM
# Method: (§1) Determination of pH and temperature optima and enzyme kinetics: The optimum pH for enzyme activities was determined by a modified method of Salusjärvi, T. et al., Appl. Microbiol. Biotechnol. 65:306-314 (2004) using the following buffer system (50 mM final concentration each): sodium acetate pH 4.5 - 6.5, potassium phosphate pH 6.5 - 8.0, Tris-HCl pH 8.0 - 10. Temperature optima for the biocatalysts were determined under standard reaction conditions at temperatures ranging from 20 - 80 °C. The Michaelis constant (Km) for the proteins was determined from purified enzyme by Lineweaver-Burk plots. Assays were performed at optimum pH for each enzyme and at 30 °C using the top substrate and a targeted substrate. The Km for each substrate was calculated using concentrations of 0.0025 to 10 mM, and the Km NAD(P)H and NAD(P) was calculated using concentrations of 0.01 to 0.5 mM
# (§2) The Michaelis constants were determined from purified enzyme by Lineweaver-Burk plots. The Km and Vmax values for the substrates were calculated using concentrations of 0.025 to 10 mM, The optimal pH values and temperatures for enzyme activities are also shown in Tab. 11. Tab. 11: Summary of kinetic parameters
# [2] = tested on: O=CC(=O)c1ccccc1; experiment: Enzyme kinetics (Lineweaver-Burk plots), Gox0644; format: biochemical, Gluconobacter oxydans; conditions: other: Gox0644; substrate 0.025 to 10 mM
# Method: as §1, §2
# [3] = tested on: C=CC(C)=O; experiment: Enzyme kinetics (Lineweaver-Burk plots), Gox2107; format: biochemical, Gluconobacter oxydans; conditions: other: Gox2107; substrate 0.025 to 10 mM
# Method: as §1, §2
# [4] = tested on: O=C1C=CC(=O)c2ccccc21; experiment: Enzyme kinetics (Lineweaver-Burk plots), Gox2107; format: biochemical, Gluconobacter oxydans; conditions: other: Gox2107; substrate 0.025 to 10 mM
# Method: as §1, §2
# [5] = substrate: C=CC(C)=O; experiment: purified protein, by the assay type; conditions: other: Gox0502; substrate 0.025 to 10 mM
# [6] = substrate: CCCC(=O)C(C)=O; experiment: Enzyme kinetics (Lineweaver-Burk plots), Gox1615; format: biochemical, Gluconobacter oxydans; conditions: other: Gox1615; substrate 0.025 to 10 mM
# Method: as §1, §2
# [7] = substrate: CC(=O)C=O; experiment: Enzyme kinetics (Lineweaver-Burk plots), Gox1615; format: biochemical, Gluconobacter oxydans; conditions: other: Gox1615; substrate 0.025 to 10 mM
# Method: as §1, §2
# [8] = substrate: C=CC(C)=O; experiment: Enzyme kinetics (Lineweaver-Burk plots), Gox2684; format: biochemical, Gluconobacter oxydans; conditions: other: Gox2684; substrate 0.025 to 10 mM
# Method: as §1, §2
# [9] = substrate: CC=O; experiment: Enzyme kinetics (Lineweaver-Burk plots), aldehyde dehydrogenase Gox1122; format: biochemical, Gluconobacter oxydans
# Method: Determination of pH and temperature optima and enzyme kinetics: The optimum pH for enzyme activities was determined by a modified method of Salusjärvi, T. et al., Appl. […] Temperature optima for the biocatalysts were determined under standard reaction conditions at temperatures ranging from 20 - 80 °C. The Michaelis constant (Km) for the proteins was determined from purified enzyme by Lineweaver-Burk plots. Assays were performed at optimum pH for each enzyme and at 30 °C using the top substrate and a targeted substrate.
# [10] = substrate: NC(=O)c1ccc[n+]([C@@H]2O[C@H](COP(=O)(O)OP(=O)(O)OC[C@H]3O[C@@H](n4cnc5c(N)ncnc54)[C@H](OP(=O)(O)O)[C@@H]3O)[C@@H](O)[C@H]2O)c1; experiment: purified protein, by the assay type; conditions: other: Gox1122; for the cofactor NADP
# [11] = other: Gox1122, aldehyde concentrations from 0.0025 to 10 mM
# [12] = other: Tab. 11, Gox1122, substrate 0.025 to 10 mM
molecule,measurement,setting,value
Gox0644 (Gluconobacter oxydans 621H),Km,[1],5600 µM
same,Vmax,[1],79.0 µmol/min/mg
same,Km,[2],4700 µM
same,Vmax,[2],93.0 µmol/min/mg
Gox2107 (Gluconobacter oxydans 621H),Km,[3],3800 µM
same,Vmax,[3],119 µmol/min/mg
same,Km,[4],10 µM
same,Vmax,[4],217 U/mg protein
Gox0502 (Gluconobacter oxydans 621H) (protein) MPTLFDPIDFGPIHAKNRIVMSPLTRGRADKEAVPTPIMAEYYAQRASAGLIITEATGISREGLGWPFAPGIWSDAQVEAWKPIVAGVHAKGGKIVCQLWHMGRMVHSSVTGTQPVSSSATTAPGEVHTYEGKKPFEQARAIDAADISRILNDYENAARNAIRAGFDGVQIHAANGYLIDEFLRNGTNHRTDEYGGVPENRIRFLKEVTERVIAAIGADRTGVRLSPNGDTQGCIDSAPETVFVPAAKLLQDLGVAWLELREPGPNGTFGKTDQPKLSPQIRKVFLRPLVLNQDYTFEAAQTALAEGKADAIAFGRKFISNPDLPERFARGIALQPDDMKTWYSQGPEGYTDYPSATSGPN,Km,[5],100 µM
same,Vmax,[5],21.0 µmol/min/mg
Gox1615 (Gluconobacter oxydans 621H) (protein) MASDTIRIPGIDTPLSRVALGTWAIGGWMWGGPDDDNGVRTIHAALDEGINLIDTAPVYGFGHSEEIVGRALAEKPNKAHVATKLGLHWVGEDEKNMKVFRDSRPARIRKEVEDSLRRLRVETIDLEQIHWPDDKTPIDESARELQKLHQDGKIRALGVSNFSPEQMDIFREVAPLATIQPPLNLFERTIEKDILPYAEKHNAVVLAYGALCRGLLTGKMNRDTTFPKDDLRSNDPKFQKPNFEKYLAAMDEFEKLAEKRGKSVMAFAVRWVLDQGPVIALWGARKPGQVSGVKDVFGWSLTDEEKKAVDDILARHVPNPIDPTFMAPPARD,Km,[6],3200 µM
same,Vmax,[6],6.0 µmol/min/mg
same,Km,[7],3800 µM
same,Vmax,[7],22.0 µmol/min/mg
Gox2684 (Gluconobacter oxydans 621H) (protein) MTSLFEPIELGSIYAKNRILMAPLTRGRGTRDHVPTPIMAEYYAQRAGAGLIISEATGISREGLGWPYAPGLWSQEQVEAWKPITAAVHAKGGKIVAQLWHMGRMVHSSVTGQQPVSCSATKAPEALHTYDGKQAPEVARPLTKEDIARILNDYENAARNALQAGFDGVQIHAANGYLIDEFLRDGTNHRSDEYGGSPENRIRFLREVTERVIATIGAHKTSVRLSPNGDTVGCIDSHPEQVFVPAAKLLNDLDIAFLELREPGPNGTFGKTDQPKLHGPIREVFRKPLVLNQDYTREEAIETVATGVADAISFGRPFLANPDLVRRLEDNLPQNKDDIRTWYSQGAEGYTDYPLAR,Km,[8],300 µM
same,Vmax,[8],11.3 µmol/min/mg
Gox1122 (Gluconobacter oxydans 621H) (protein) MAYATINPYTGETLKTFPEATDQEVQTALTEAYDAFKSWRHTPFAERAKIMTAAANILRRDIDKYSKLLTLEMGKIYAEAKAETILSAEIFEYYAKNAEELLKAEKLPVADPKEGEAVLIHQPQGIVFAIEPWNFPFYQIARIIAPQLSAGNTVILKHASNVPQCAAAFDDLMKEAGLPKGGFRNLYAARHHTETILKDPRVCGVALTGSEGAGAVVAGIAAQALKKSTMELGGSDAFLVLDDADLEKTAKWAAFGRHWNAGQVCVSAKRLIVADAVYDRFVELYKAEVAKLIPGDPMDPKTTLAPLSSQKAADDLKAQVEEAKKHGAVVEAIGPSVPEKGAFFQPLLMTNLHENNEARLWEFFGPVTQLYRAKDDADAIRIANDSPFGLGGSVFTKDTQRGVKVAEQIYTGMVYINHPTMVKADLPFGGVARSGYGRELIGLGIKEFVNHKLIDVVDIDAPF,Km,[9]; [11],255 µM
same,Vmax,[9]; [11],196 U/mg protein
same,Km,[9]; [12],200 µM
same,Vmax,[9]; [12],196 µmol/min/mg
same,Km,[10],73 µM
